Measured values published in US11397178B2, “Method of predicting progression of idiopathic pulmonary fibrosis and monitoring of therapeutic efficacy” (Cedars-Sinai Medical Center, priority 2016, dated 2022).

Test system: CCR10+ EphA3+ cells
Assay: Humanized NSG mouse model of IPF: KB004 / KB243 mAb treatment (hydroxyproline, Masson's trichrome, flow cytometry)
Format: in vivo, human IPF cells in NSG mice
Source text: Six to eight-week old, female, pathogen free NOD Cg-Prkdc^SCID IL2rg^Tm1wil Szi (NSG) or NOD.Cg-Prkdc^SCID IL2rg^tm1Wil Tg(CAG-EGFP) 10sb/SzJ (NSG-GFP) were purchased from Jackson Laboratories and housed in Cedars-Sinai Medical Center's high isolation animal rooms. NSG mice were allowed a minimum of one week to acclimate in the facility and then these mice either received nothing (i.e., non-humanized) 1×10^6 IPF cells by intravenous injection (i.e. humanized). In most in vivo experiments, the IPF cells used were removed from liquid N2 storage, rapidly thawed, and washed in serum-free medium prior to injection into NSG mice. […] […] Other groups of humanized NSG mice received either vehicle (i.e., solutol) or BIBF1120 (Cayman Chemicals) by oral gavage beginning at day 35 after IPF cell injection. Vehicle or drug was administered 5 days a week until day 63 after IPF cell injection. All NSG groups were monitored daily and mice were sacrificed if there is evidence for morbidity such as weight loss of more than 20%, loss of fur, paralysis and/or lack of responsiveness when handled.
Murine lung cellular suspensions were generated using a mouse lung dissociation kit, C-tubes, and a GentleMacs dissociator (Miltenyi Biotech). Spleens were dissociated using a sterile rubber tip of 1 ml syringe plunger and 100 μm 50 ml tube filters (BD bioscience) as follows: isolated spleens were placed in 1 ml of sterile complete medium until all the samples were collected. Sterile 50 ml conical tube filters were placed on top of sterile 50 ml conical tubes and were equilibrated by pipetting 1 ml of calcium and magnesium free DPBS (DBPS; Cellgro) through the filters. Spleens were transferred to a sterile 50 ml filter, cellular suspensions were generated using a sterile rubber tip of a syringe plunger, and splenic material was flushed with 5 ml of DPBS. Lung and splenic cell suspensions were centrifuged and resuspended in 1 ml of RBC lysis buffer (Biolegend), incubated at room temperature for 1-2 min and then equilibrated by adding 25 ml of DPBS to each tube. Cells were centrifuged and resuspended in flow cytometric wash/staining buffer (DPBS+2% FBS) in the presence of human and mouse Fc receptor blocking antibodies (Biolegend). Cells were then stained with anti-human-CD45, -EpCAM and -CCR10 antibodies for 20 min at 4° C. Unstained, isotype controls, fluorescent minus one controls and staining in non-humanized murine lung and spleen suspensions were utilized to gate out any non-specific antibody binding and background fluorescence. CCR10 antibodies were validated via the enrichment for CCR10 transcripts in magnetically sorted CCR10^+ cells versus non-sorted normal and IPF explant cells (FIG. 35). Flow cytometric data were acquired within one week of staining using a LSR Frotessa (BD Biosciences) or MACSQuant 10 (Miltenyi Biotech) flow cytometers and data were analyzed using Flowjo software V10.2 (Treestar Inc.). The resulting gates from non-humanized NSG-GFP mice were used to identify human CD45-, EPCAM-, CCR10-, and PDGFRα-stained cells (FIGS. 36C & 21F).
Lung tissue was fixed in 10% NBF solution for 24 h and subsequently transferred into tissue cassettes and kept in a 70% ethanol solution for approximately 24 h, Lungs were then processed using routine histology techniques and stained using Masson's trichrome. A Zeiss Axio Observer Z1 microscope and the Zeiss Zen 2012 v 1.1.2.0 software (Zeiss) were used to obtain representative images.
Total lung hydroxyproline was analyzed. […] On the day of the assay, tissues were thawed and […] of distilled water (dH2O) was added to the tissues. Tissues were homogenized using a micro-sample homogenizer (Pro Scientific) as follows: the homogenizing tip was washed in 70% ethanol, then dH2O and then utilized to homogenize the tissues. The homogenizer was washed in dH2O between samples and a new batch of dH2O was utilized after 5 samples. […]

[1] = prophylactic, 5 mg/kg days 0 to 35, day 35, flow cytometry
[2] = treatment beginning at day 7, day 35

B1: KB004: afucosylated anti-EphA3 mAb supplied by Kalobios; targets EphA3+ cells via antibody-dependent cell-mediated cytotoxicity (ADCC) (antibody, chains of the INN, looked up, V domains shown)
VH: QVQLVQSGAEVKKPGASVKVSCKASGYTFTGYWMNWVRQAPGQGLEWMGDIYPGSGNTNYDEKFQGRVTMTRDTSISTAYMELSRLRSDDTAVYYCARGGYYEDFDSWGQGTTVTVSS
VL: DIQMTQSPSFLSASVGDRVTITCRASQGIISYLAWYQQKPEKAPKRLIYAASSLQSGVPSRFSGSGSGTEFTLTISSLQPEDFATYYCGQYANYPYTFGQGTKLEIK
Prophylactic treatment over 35 days
  development of lung fibrosis: completely prevented
[1]
  CCR10+ CD45+ cells in lungs, KB004 versus KB243: significant reduction
  CCR10+ Lin- cells in lungs, KB004 versus KB243: significant reduction
prophylactic, 5 mg/kg i.p. twice weekly days 0 to 35, day 35
  hydroxyproline in the lungs: significantly reduced
Therapeutic treatment from days 35 to 63
  numbers of CD45+ and Lin- CCR10+ cells and pulmonary fibrosis: failed to reduce
therapeutic, days 35 to 63
  histological appearance, KB243 versus KB004: no significant difference
  lung hydroxyproline, KB243 versus KB004: no significant difference
therapeutic, days 35 to 63, flow cytometry
  CCR10+ cell numbers, KB243 versus KB004: no significant difference
therapeutic, starting at day 35, day 63
  hydroxyproline in humanized NSG lungs relative to non-humanized mice: elevated
[2]
  histological interstitial consolidation, KB004 compared to KB243: ameliorated
  number of CD45+ CCR10+ cells, KB004 compared to KB243: significant reduction
Treatment beginning at day 7 after IPF cell injection, day 35
  lung hydroxyproline, KB004 compared to KB243: lower
